Here are results for eight sequences from the DeepSol protein solubility set.

This series can be described thus: soluble on expression in E. coli; label from the status in PepcDB or PDB records.
With “MEAYEKHYQELRQAKNIDGKPFQLIPVPVTRKVVKEADCKGSYLNFYIGNEVVLVPVYGDEHDKLGLQIIEGQFPGRRIVGIYVNELYAYGGMIHCVTQQHIELEHHHHHH”, the “soluble on expression in E. coli” value is reported as “not soluble”.

As for “MSASVSLTTPVSVSCLINDVNPSVKAKKEDATAVTTTQAPKIAEAIHRSTPTLADNVLYDSTSYTHGVTTGSTNVPISSGQRPQQADYSLALLAKDVYAPTSGNLNGFVRLSDERLLAAGIDPTALSDSASGFLAGIYSDNQQYVLSFAGTNDRHDWLSNIRQAVGYEDVQYNEAVALGKTAKMAFGDALVITGHSLGGGLAATAALATGTFAVTFNAAGVAKNTLKRLGMDSAKARRSAENGGIRSYSEKYDLLTGIQELTSLIPNAVGHKIVLANSDKLTGVDDWLPHKHLERRISAHSIEKVLSSMSEQQPWERRYV”, the “soluble on expression in E. coli” value is “not soluble”.

Turning to “MAKYFGTDGIRGEVANSTITVEFTQKLGNAVGSLINQKNYPKFVIVGQDTRSSGGFLKFALVSGLNAAGIDVLDLGVVPTPVVAFMTVKHRAAAGFVITASHNKFTDNGIKLFSSNGFKLDDALEEEVEDMIDGDFIYQPQFKFGSYKILANAIDEYIESIYSRFAKFVNYKGKVVVDCAHGAASHNFEALLDKFGINYVSIASNPDGLNINVGCGATCVSNIKKAVKEQKADLGISLDGDADRIIIVDENGQEIDGDGILNILAQYSDICGGTNGIVGTQMTNMSYENHYRANKIPFIRSKVGDRYVLEDLVKYGYKIGGESSGHVINLNFGTTGDGLFTAIQLLAIFSQADKPVSEFKLQGELMQQTLINVPLTKKVAREDLQKVASDVNDVEKRLGNRGRVLLRPSGTEPVLRVMVEADDKSLATNEAEYLVEKVKQKLV”, the “soluble on expression in E. coli” value is given as “soluble”.

Turning to “MYNDELIESSKIKWQLFLKGDDDAYAWLYSRYVQQLYQYGCRFTTDTEMVKDCVQDVFVNVYRQKDRYSSPPDNVKIYLMSSLRNSIFNVFNKGNLHDTYISNINYEFDLSVEEKLIETEDETSQKHTVAHLLNTLSPRQREIIYYRFFEGLDYSAICELMGLNYQSAYNLLQRSLSRLREMYGILPFFFLF”, the “soluble on expression in E. coli” value was “not soluble”.

As for “TTEENSKSEALLDIPMLEQYLELVGPKLITDGLAVFEKMMPGYVSVLESNLTAQDKKGIVEEGHKIKGAAGSVGLRHLQQLGQQIQSPDLPAWEDNVGEWIEEMKEEWRHDVEVLKAWVAKATKK”, the “soluble on expression in E. coli” value is listed as “soluble”.

On to “MVHKSVESPAFSASIEDYALIGDQQSAALVARDGSIDWLCLPRFDSPACFAALLGDEHNGKWRIAPKGAGPCTRRAYRTDSLVLDSEWDTPEGTLRVTDLMPQRDSAPDLVRIVEGLRGRVTVRSAIRLRFDYGLEHHHHHH”, for which the “soluble on expression in E. coli” value is reported as “soluble”.

As to “SKRVEVLLTQLPAYNRLKTPYEAELIETAKKMTAPGKGLLAADESTGSCSKRFAGIGLSNTAEHRRQYRALMLECEGFEQYISGVILHDETVYQKAKTGETFPQYLRRRGVVPGIKTDCGLEPLVEGAKGEQMTAGLDGYIKRAKKYYAMGCRFCKWRNVYKIQNGTVSEAVVRFNAETLARYAILSQLCGLVPIVEPEVMIDGTHDIETCQRVSQHVWSEVVSALHRHGVVWEGCLLKPNMVVPGAESGLKGHAEQVAEYTVKTLARVIPPALPGVTFLSGGLSEVMASEYLNAMNNCPLPRPWKLTFSYARALQSSAIKRWGGKESGVEAGRRAFMHRAKMNSLAQLGKYNRADDDKDSQSLYVAGNT”, the “soluble on expression in E. coli” value was “soluble”.

In the case of “MQDEFYMARALKLAQRGRFTTHPNPNVGCVIVNNGDIVGEGYHHRAGEPHAEVHALRMAGAKAKGATAYVTLEPCSHHGRTPPCCDALIAAGVARVVAAMQDPNPQVAGRGLYRLQQAGIAVSHGLMMSEAEALNKGFLKRMRTGFPYLQLKLGASVDGRTAMASGESQWITSPQARRDVQRLRAQSHAILTSSATVLADDPALTVRWAELDASTQASYPQENLRQPVRIVIDSQNRVTPAHRIVQQPGETWIARTQEDSRAWPDAVRTISVPAHNGHLDLVVLMMQLGRQQINSIWVEAGPGLAGALLQAGLVDELIVYVAPKLLGTQARGLCELPGLEKLADAPQFTFSEIRHVGPDVCLHMVSA”, the “soluble on expression in E. coli” value is listed as “soluble”.
